From patent US20250326841A1

Legend:
[1] = target: mouse TIM-3, membrane bound (mouse) (UniProt Q8VIM0); test: binding to activated mouse T cells, compared with TIM3.18 binding to human TIM-3; method not described
[2] = target: mouse TIM-3, membrane bound (mouse) (UniProt Q8VIM0); test: binding to activated mouse T cells; method not described

mouse TIM-3, membrane bound (mouse), sequence (Q8VIM0 20-281): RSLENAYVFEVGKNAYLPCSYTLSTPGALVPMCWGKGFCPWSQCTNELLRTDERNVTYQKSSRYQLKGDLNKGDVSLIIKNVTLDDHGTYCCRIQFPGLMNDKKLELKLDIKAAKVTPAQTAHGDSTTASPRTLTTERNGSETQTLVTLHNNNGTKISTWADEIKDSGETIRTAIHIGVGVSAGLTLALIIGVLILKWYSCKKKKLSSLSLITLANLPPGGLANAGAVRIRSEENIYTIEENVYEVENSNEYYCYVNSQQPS

“RMT3-23, rat anti-mouse TIM-3 antibody (Bio-X-Cell)” was tested. Which fold weaker EC50 than TIM3.18 on human TIM-3 [1] did it give?
The fold weaker EC50 than TIM3.18 on human TIM-3 was 17 fold.

What about the EC50 [2] of the same substance?
The EC50 was 1.7 nM.
